Data: patent US20230279138A1 (CHIA TAI TIANQING PHARMACEUTICAL GROUP, published 2023)
Residue numbers refer to the chain shown, from its start. Names and notes keep the numbering of the source. Values belong to the binder of their own block, whether it stands above or below them.

Key:
[1] = target: T1, CD20 on Raji cells (CD20+/CD3- cells) (human, UniProt P11836 1-297); test: flow cytometry on Raji cells (CD20+/CD3-)
T1 construct: whole, on cells; Raji, Ramos and NAMALWA in the killing assays; also called Ramos; NAMALWA
T1 sequence (looked up): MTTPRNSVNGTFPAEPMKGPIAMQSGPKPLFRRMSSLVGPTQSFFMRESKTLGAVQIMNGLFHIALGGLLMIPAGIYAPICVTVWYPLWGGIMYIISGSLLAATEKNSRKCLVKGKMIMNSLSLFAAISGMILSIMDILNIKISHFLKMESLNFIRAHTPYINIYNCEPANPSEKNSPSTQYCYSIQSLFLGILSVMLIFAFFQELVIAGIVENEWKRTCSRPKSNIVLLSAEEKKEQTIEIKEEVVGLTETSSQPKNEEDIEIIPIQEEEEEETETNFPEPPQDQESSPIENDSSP
Procedure: (§1) After incubation, the cells were washed twice with cold 1% BSA/1×PBS. […] After being washed twice, the geometric mean fluorescence (MFI) of the stained cells was measured using a FACS Canto II […] (BD Biosciences). Wells containing no antibody or containing only fluorescent secondary antibody were used to establish background fluorescence. The EC50 values for cell binding were determined using GraphPad Prism 5 software (GraphPad Software, La Jolla, Calif.); each value was calculated by four-parameter non-linear regression analysis.

[2] = target: T2, CD3 on Jurkat cells (CD3+/CD20- cells) (human, UniProt P07766 23-207; P04234 22-171; P09693 23-182); test: flow cytometry on Jurkat 2B8 cells (CD3+/CD20-)
T2 construct: whole, on cells; also called Jurkat 2B8
T2 sequence (P07766 23-207, chain 1 of 3): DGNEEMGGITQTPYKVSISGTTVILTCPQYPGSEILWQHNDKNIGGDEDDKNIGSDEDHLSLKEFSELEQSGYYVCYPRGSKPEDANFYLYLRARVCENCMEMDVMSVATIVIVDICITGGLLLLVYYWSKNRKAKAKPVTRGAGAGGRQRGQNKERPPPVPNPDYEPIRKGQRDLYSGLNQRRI
T2 sequence (P04234 22-171, chain 2 of 3): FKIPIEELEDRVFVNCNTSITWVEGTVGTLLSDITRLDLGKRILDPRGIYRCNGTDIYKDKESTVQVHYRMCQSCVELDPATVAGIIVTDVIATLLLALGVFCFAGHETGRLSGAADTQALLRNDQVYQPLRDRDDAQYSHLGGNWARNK
T2 sequence (P09693 23-182, chain 3 of 3): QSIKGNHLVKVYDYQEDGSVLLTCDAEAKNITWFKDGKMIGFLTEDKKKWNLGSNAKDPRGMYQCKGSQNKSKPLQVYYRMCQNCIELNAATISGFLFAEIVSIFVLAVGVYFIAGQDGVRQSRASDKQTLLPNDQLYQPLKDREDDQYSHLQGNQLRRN
Procedure: as §1

- EC50 [1]: 1.3 nM
- TOP MFI [1]: 55400 MFI
- EC50 [2]: 26.6 nM
- TOP MFI [2]: 536 MFI
B1: W3278-U3T2.F18R-1.uIgG4.SP (bispecific antibody)
heavy 1: EVQLVESGGGLVQPGRSLRLSCAASGFTFNDYAMHWVRQAPGKGLEWVSTISWNSGSIGYADSVKGRFTISRDNAKKSLYLQMNSLRAEDTALYYCAKDIQYGNYYYGMDVWGQGTTVTVSSASTKGPSVFPLAPCSRSTSESTAALGCLVKDYFPEPVTVSWNSGALTSGVHTFPAVLQSSGLYSLSSVVTVPSSSLGTKTYTCNVDHKPSNTKVDKRVGGGGSGGGGSQVQLVQSGAEVKKPGSSVKVSCKASGYSFTTYYIHWVRQAPGQGLEWMGWIFPGNDNIKYSEKFKGRVTITADKSTSTAYMELSSLRSEDTAVYYCAIDSVSIYYFDYWGQGTLVTVLEDLKNVFPPEVAVFEPSEAEISHTQKATLVCLATGFYPDHVELSWWVNGKEVHSGVCTDPQPLKEQPALQDSRYALSSRLRVSATFWQNPRNHFRCQVQFYGLSENDEWTQDRAKPVTQIVSAEAWGRYGPPCPPCPAPEFLGGPSVFLFPPKPKDTLMISRTPEVTCVVVDVSQEDPEVQFNWYVDGVEVHNAKTKPREEQFNSTYRVVSVLTVLHQDWLNGKEYKCKVSNKGLPSSIEKTISKAKGQPREPQVYTLPPCQEEMTKNQVSLWCLVKGFYPSDIAVEWESNGQPENNYKTTPPVLDSDGSFFLYSRLTVDKSRWQEGNVFSCSVMHEALHNHYTQKSLSLSLG
heavy 2: EVQLVESGGGLVQPGRSLRLSCAASGFTFNDYAMHWVRQAPGKGLEWVSTISWNSGSIGYADSVKGRFTISRDNAKKSLYLQMNSLRAEDTALYYCAKDIQYGNYYYGMDVWGQGTTVTVSSASTKGPSVFPLAPCSRSTSESTAALGCLVKDYFPEPVTVSWNSGALTSGVHTFPAVLQSSGLYSLSSVVTVPSSSLGTKTYTCNVDHKPSNTKVDKRVESKYGPPCPPCPAPEFLGGPSVFLFPPKPKDTLMISRTPEVTCVVVDVSQEDPEVQFNWYVDGVEVHNAKTKPREEQFNSTYRVVSVLTVLHQDWLNGKEYKCKVSNKGLPSSIEKTISKAKGQPREPQVCTLPPSQEEMTKNQVSLSCAVKGFYPSDIAVEWESNGQPENNYKTTPPVLDSDGSFFLVSRLTVDKSRWQEGNVFSCSVMHEALHNHYTQKSLSLSLG
light 1: not shown
light 2: DIVMTQSPDSLAVSLGERATINCKSSQSLLNSRTRKNYLAWYQQKPGQPPKLLIYWASTRKSGVPDRFSGSGSGTDFTLTISSLQAEDVAVYYCTQSFILRTFGGGTKVEIKPDIQNPDPAVYQLRDSKSSDKSVCLFTDFDSQTQVSQSKDSDVYITDKCVLDMRSMDFKSNSAVAWSQKSDFACANAFQNSIIPEDTFFPSPESS
notes: Human IgG4 S228P, knobs-into-holes; also called W3278 BsAb; WBP3278 BsAb

- EC50 [1]: 85.3 nM
- TOP MFI [1]: 64900 MFI
- EC50 [2]: 17.3 nM
- TOP MFI [2]: 7360 MFI
B2: W3278-T3U2.F17R-1.uIgG4.SP (bispecific antibody)
heavy 1: QVQLVQSGAEVKKPGSSVKVSCKASGFAFTDYYIHWVRQAPGQGLEWMGWISPGNVNTKYNENFKGRVTITADKSTSTAYMELSSLRSEDTAVYYCARDGYSLYYFDYWGQGTLVTVLEDLKNVFPPEVAVFEPSEAEISHTQKATLVCLATGFYPDHVELSWWVNGKEVHSGVCTDPQPLKEQPALQDSRYALSSRLRVSATFWQNPRNHFRCQVQFYGLSENDEWTQDRAKPVTQIVSAEAWGRGGGGSGGGGSQVQLQQPGAELVKPGASVKMSCKASGYTFTSYNMHWVKQTPGRGLEWIGAIYPGNGDTSYNQKFKGKATLTADKSSSTAYMQLSSLTSEDSAVYYCARSTYYGGDWYFNVWGAGTTVTVSAASTKGPSVFPLAPCSRSTSESTAALGCLVKDYFPEPVTVSWNSGALTSGVHTFPAVLQSSGLYSLSSVVTVPSSSLGTKTYTCNVDHKPSNTKVDKRVESKYGPPCPPCPAPEFLGGPSVFLFPPKPKDTLMISRTPEVTCVVVDVSQEDPEVQFNWYVDGVEVHNAKTKPREEQFNSTYRVVSVLTVLHQDWLNGKEYKCKVSNKGLPSSIEKTISKAKGQPREPQVYTLPPCQEEMTKNQVSLWCLVKGFYPSDIAVEWESNGQPENNYKTTPPVLDSDGSFFLYSRLTVDKSRWQEGNVFSCSVMHEALHNHYTQKSLSLSLG
heavy 2: QVQLQQPGAELVKPGASVKMSCKASGYTFTSYNMHWVKQTPGRGLEWIGAIYPGNGDTSYNQKFKGKATLTADKSSSTAYMQLSSLTSEDSAVYYCARSTYYGGDWYFNVWGAGTTVTVSAASTKGPSVFPLAPCSRSTSESTAALGCLVKDYFPEPVTVSWNSGALTSGVHTFPAVLQSSGLYSLSSVVTVPSSSLGTKTYTCNVDHKPSNTKVDKRVESKYGPPCPPCPAPEFLGGPSVFLFPPKPKDTLMISRTPEVTCVVVDVSQEDPEVQFNWYVDGVEVHNAKTKPREEQFNSTYRVVSVLTVLHQDWLNGKEYKCKVSNKGLPSSIEKTISKAKGQPREPQVCTLPPSQEEMTKNQVSLSCAVKGFYPSDIAVEWESNGQPENNYKTTPPVLDSDGSFFLVSRLTVDKSRWQEGNVFSCSVMHEALHNHYTQKSLSLSLG
light 1: B1 light 2 with K61Q, F98H, I99T
light 2: QIVLSQSPAILSASPGEKVTMTCRASSSVSYIHWFQQKPGSSPKPWIYATSNLASGVPVRFSGSGSGTSYSLTISRVEAEDAATYYCQQWTSNPPTFGGGTKLEIKRTVAAPSVFIFPPSDEQLKSGTASVVCLLNNFYPREAKVQWKVDNALQSGNSQESVTEQDSKDSTYSLSSTLTLSKADYEKHKVYACEVTHQGLSSPVTKSFNRGEC
notes: also called W3278 BsAb; WBP3278 BsAb

- EC50 [1]: > 1000 nM
- TOP MFI [1]: 55200 MFI
- EC50 [2]: 58.9 nM
- TOP MFI [2]: 6750 MFI
B3: W3278-T3U2.F16-1.uIgG4.SP (bispecific antibody)
heavy 1: QVQLVQSGAEVKKPGSSVKVSCKASGFAFTDYYIHWVRQAPGQGLEWMGWISPGNVNTKYNENFKGRVTITADKSTSTAYMELSSLRSEDTAVYYCARDGYSLYYFDYWGQGTLVTVLEDLKNVFPPEVAVFEPSEAEISHTQKATLVCLATGFYPDHVELSWWVNGKEVHSGVCTDPQPLKEQPALQDSRYALSSRLRVSATFWQNPRNHFRCQVQFYGLSENDEWTQDRAKPVTQIVSAEAWGRYGPPCPPCPAPEFLGGPSVFLFPPKPKDTLMISRTPEVTCVVVDVSQEDPEVQFNWYVDGVEVHNAKTKPREEQFNSTYRVVSVLTVLHQDWLNGKEYKCKVSNKGLPSSIEKTISKAKGQPREPQVYTLPPCQEEMTKNQVSLWCLVKGFYPSDIAVEWESNGQPENNYKTTPPVLDSDGSFFLYSRLTVDKSRWQEGNVFSCSVMHEALHNHYTQKSLSLSLG
heavy 2: QVQLQQPGAELVKPGASVKMSCKASGYTFTSYNMHWVKQTPGRGLEWIGAIYPGNGDTSYNQKFKGKATLTADKSSSTAYMQLSSLTSEDSAVYYCARSTYYGGDWYFNVWGAGTTVTVSAASTKGPSVFPLAPCSRSTSESTAALGCLVKDYFPEPVTVSWNSGALTSGVHTFPAVLQSSGLYSLSSVVTVPSSSLGTKTYTCNVDHKPSNTKVDKRVGGGGSGGGGSQVQLQQPGAELVKPGASVKMSCKASGYTFTSYNMHWVKQTPGRGLEWIGAIYPGNGDTSYNQKFKGKATLTADKSSSTAYMQLSSLTSEDSAVYYCARSTYYGGDWYFNVWGAGTTVTVSAASTKGPSVFPLAPCSRSTSESTAALGCLVKDYFPEPVTVSWNSGALTSGVHTFPAVLQSSGLYSLSSVVTVPSSSLGTKTYTCNVDHKPSNTKVDKRVESKYGPPCPPCPAPEFLGGPSVFLFPPKPKDTLMISRTPEVTCVVVDVSQEDPEVQFNWYVDGVEVHNAKTKPREEQFNSTYRVVSVLTVLHQDWLNGKEYKCKVSNKGLPSSIEKTISKAKGQPREPQVCTLPPSQEEMTKNQVSLSCAVKGFYPSDIAVEWESNGQPENNYKTTPPVLDSDGSFFLVSRLTVDKSRWQEGNVFSCSVMHEALHNHYTQKSLSLSLG
light 1: B1 light 2 with K61Q, F98H, I99T
light 2: B2 light 2
notes: as for B1
